Our source for the interaction score values is PMC10397247.

For one experiment, the target named is T1, 4H3365-AA.
T1 chain: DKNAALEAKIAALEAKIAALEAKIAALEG
Nature of the experiment: two-hybrid library CCmax.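 Note: natural log of median RNA to DNA barcode read ratio; higher means stronger binding.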 The conditions noted are these: mean of both orientations.

The next experiment has as its target T2, 4H465-AA.
T2 chain: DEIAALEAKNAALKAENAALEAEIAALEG
Nature of the experiment: two-hybrid library CCmax.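 Note: natural log of median RNA to DNA barcode read ratio; higher means stronger binding.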 The conditions noted are these: mean of both orientations.

The next experiment addresses T3, 4H2721-AA.
T3 chain: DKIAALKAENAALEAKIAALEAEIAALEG
Nature of the experiment: two-hybrid library CCmax.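 Note: natural log of median RNA to DNA barcode read ratio; higher means stronger binding.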 The conditions noted are these: mean of both orientations.

In another experiment the target is 4H_GCN4. Nature of the experiment: two-hybrid library CCmax.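 Note: natural log of median RNA to DNA barcode read ratio; higher means stronger binding.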
4H_GCN4, sequence (chain, as listed by the source): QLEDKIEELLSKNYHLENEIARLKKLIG
In another experiment the target is T4, 4H_BCR.
T4 chain: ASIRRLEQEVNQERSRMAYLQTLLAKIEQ
The experiment is described as follows: two-hybrid library CCmax.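 Note: natural log of median RNA to DNA barcode read ratio; higher means stronger binding.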 The conditions noted are these: mean of both orientations.

The next experiment deals with T5, 4H3020-AA.
T5 chain: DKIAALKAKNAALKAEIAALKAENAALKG
Nature of the experiment: two-hybrid library CCmax.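 Note: natural log of median RNA to DNA barcode read ratio; higher means stronger binding.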 Particulars: mean of both orientations.

The target of the next experiment is T6, 4H2898-AA.
T6 chain: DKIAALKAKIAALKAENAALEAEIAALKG
The experiment is described as follows: two-hybrid library CCmax. Particulars: mean of both orientations.

A further experiment concerns the target T7, 4H3705-AA.
T7 chain: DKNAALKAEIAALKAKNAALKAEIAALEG
Nature of the experiment: two-hybrid library CCmax. Particulars: mean of both orientations.

The next experiment deals with T8, 4H486-AA.
T8 chain: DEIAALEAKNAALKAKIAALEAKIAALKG
Nature of the experiment: two-hybrid library CCmax. The conditions noted are these: mean of both orientations.

In a further experiment the target is T9, 4H_APH.
T9 chain: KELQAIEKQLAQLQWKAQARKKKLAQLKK
The experiment is described as follows: two-hybrid library CCmax. The conditions noted are these: mean of both orientations.

The target of a further experiment is T10, 4H2600-AA.
T10 chain: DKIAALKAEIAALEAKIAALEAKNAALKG
The experiment is described as follows: two-hybrid library CCmax. The conditions noted are these: mean of both orientations.

For the next experiment, the target named is T11, 4H1802-AA.
T11 chain: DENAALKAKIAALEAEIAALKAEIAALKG
The experiment is described as follows: two-hybrid library CCmax. Particulars: mean of both orientations.

For another experiment, the target named is T12, 4H1257-AA.
T12 chain: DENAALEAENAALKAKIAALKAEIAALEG
The experiment is described as follows: two-hybrid library CCmax. Particulars: mean of both orientations.

A further experiment concerns the target T13, 4H895-AA.
T13 chain: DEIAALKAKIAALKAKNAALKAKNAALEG
Nature of the experiment: two-hybrid library CCmax. The conditions noted are these: mean of both orientations.

The target in the next experiment is T14, 4H3651-AA.
T14 chain: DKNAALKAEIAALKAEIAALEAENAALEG
Nature of the experiment: two-hybrid library CCmax. The conditions noted are these: mean of both orientations.

In a further experiment the target is T15, 4H355-AA.
T15 chain: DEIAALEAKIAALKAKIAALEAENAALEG
The experiment is described as follows: two-hybrid library CCmax. The conditions noted are these: mean of both orientations.

For a further experiment, the target named is T16, 4H3782-AA.
T16 chain: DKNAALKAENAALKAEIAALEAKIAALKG
Nature of the experiment: two-hybrid library CCmax. The conditions noted are these: mean of both orientations.

In the next experiment the target is T17, 4H535-AA.
T17 chain: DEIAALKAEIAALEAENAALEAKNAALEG
Nature of the experiment: two-hybrid library CCmax. The conditions noted are these: mean of both orientations.

Another experiment addresses T18, 4H2750-AA.
T18 chain: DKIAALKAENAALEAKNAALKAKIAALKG
The experiment is described as follows: two-hybrid library CCmax.

A further experiment addresses GCN2_T. The experiment is described as follows: two-hybrid library CCmax.
In the next experiment the target is T19, 4H140-AA.
T19 chain: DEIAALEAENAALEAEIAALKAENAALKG
The experiment is described as follows: two-hybrid library CCmax. The conditions noted are these: mean of both orientations.

A further experiment addresses T20, 4H58-AA.
T20 chain: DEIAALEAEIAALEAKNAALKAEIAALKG
The experiment is described as follows: two-hybrid library CCmax. The conditions noted are these: mean of both orientations.

For a further experiment, the target named is T21, 4H1136-AA.
T21 chain: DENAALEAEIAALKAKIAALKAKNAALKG
Nature of the experiment: two-hybrid library CCmax.

The next experiment concerns the target T22, P2-AA.
T22 chain: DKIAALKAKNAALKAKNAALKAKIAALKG
Nature of the experiment: two-hybrid library CCmax. The conditions noted are these: mean of both orientations.

In the next experiment the target is T23, P2-AA-1HGe-Q.
T23 chain: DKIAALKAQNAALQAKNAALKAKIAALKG
Nature of the experiment: two-hybrid library CCmax. Particulars: mean of both orientations.

A further experiment deals with T24, P2-AA-1HGe-M.
T24 chain: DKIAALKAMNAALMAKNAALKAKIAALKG
Nature of the experiment: two-hybrid library CCmax. Particulars: mean of both orientations.

Another experiment has as its target T25, P2-AA-1HGe-T.
T25 chain: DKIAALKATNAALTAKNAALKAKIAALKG
The experiment is described as follows: two-hybrid library CCmax. Particulars: mean of both orientations.

The next experiment deals with T26, P2-AA-1HGe-D.
T26 chain: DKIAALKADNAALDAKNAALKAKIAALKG
The experiment is described as follows: two-hybrid library CCmax. The conditions noted are these: mean of both orientations.

In a further experiment the target is T27, P2-AA-1HGe-R.
T27 chain: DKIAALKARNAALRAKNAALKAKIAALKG
Nature of the experiment: two-hybrid library CCmax. Particulars: mean of both orientations.

For a further experiment, the target named is T28, P2-AA-1HGe-A.
T28 chain: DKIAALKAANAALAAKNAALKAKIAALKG
Nature of the experiment: two-hybrid library CCmax. The conditions noted are these: mean of both orientations.

The target in another experiment is T29, 4H342-bN.
T29 chain: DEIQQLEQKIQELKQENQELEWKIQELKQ
Nature of the experiment: two-hybrid library CCNG1.

A further experiment deals with T30, 4H2944-bN.
T30 chain: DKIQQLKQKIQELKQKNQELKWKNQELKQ
Nature of the experiment: two-hybrid library CCNG1.

Another experiment addresses T31, 4H2883-bN.
T31 chain: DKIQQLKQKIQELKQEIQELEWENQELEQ
Nature of the experiment: two-hybrid library CCNG1.

The target of a further experiment is T32, 4H2937-bN.
T32 chain: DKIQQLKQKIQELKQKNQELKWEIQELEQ
The experiment is described as follows: two-hybrid library CCNG1.

For another experiment, the target named is T33, 4H2696-bN.
T33 chain: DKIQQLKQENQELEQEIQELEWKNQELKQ
Nature of the experiment: two-hybrid library CCNG1.

Another experiment deals with T34, 4H48-bN.
T34 chain: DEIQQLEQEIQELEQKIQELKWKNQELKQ
The experiment is described as follows: two-hybrid library CCNG1.

The next experiment addresses T35, 4H491-bN.
T35 chain: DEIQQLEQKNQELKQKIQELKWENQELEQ
Nature of the experiment: two-hybrid library CCNG1.

On to DENAALEAEIAALKAKIAALKAKNAALKG [4H1136-AA], for which the interaction score with 4H3365-AA was -1.36; in the experiment with 4H465-AA, -1.44; with 4H2721-AA, -1.15; with 4H_GCN4, -1.83; with 4H_BCR, -1.73; with 4H3020-AA, -1.2. In addition, the interaction score was -0.29 with 4H2898-AA; -1.5 with 4H3705-AA; -0.319 in the experiment with 4H486-AA; -1.64 in the experiment with 4H_APH; 0.398 with 4H2600-AA; -1.42 in the experiment with 4H1802-AA. Besides, the interaction score was 0.673 with 4H1257-AA; -1.31 with 4H895-AA; 2.2 with 4H3651-AA; 0.718 with 4H355-AA; -0.406 in the experiment with 4H3782-AA; 1.79 with 4H535-AA. Further, the interaction score with 4H2750-AA was -1.46; in the experiment with GCN2_T, -1.68; with 4H140-AA it was -1.41; with 4H58-AA, -0.193; in the experiment with 4H1136-AA, -0.12.

Regarding DEIAALEAYNAALYAENAALEAEIAALEG [P1-AA-1HGe-Y], the interaction score is 1.87 in the experiment with P2-AA; 1.96 in the experiment with P2-AA-1HGe-Q; 1.67 in the experiment with P2-AA-1HGe-M; 2.08 with P2-AA-1HGe-T; 1.57 in the experiment with P2-AA-1HGe-D; 2.01 in the experiment with P2-AA-1HGe-R. The interaction score in the experiment with P2-AA-1HGe-A amounted to 1.65.

On to DKIQQLKQENQELEQEIQELEWKNQELKQ [4H2696-bN], for which the interaction score was -0.885 in the experiment with 4H342-bN; -0.274 with 4H2944-bN; 1.32 with 4H2883-bN; 0.131 in the experiment with 4H2937-bN; -0.134 in the experiment with 4H2696-bN; -1.05 with 4H48-bN. Also, the interaction score in the experiment with 4H491-bN came out at 0.0322.

As for DEIAALEAWNAALWAENAALEAEIAALEG [P1-AA-1HGe-W], the interaction score came out at 1.7 with P2-AA; 1.87 in the experiment with P2-AA-1HGe-Q; 2.21 in the experiment with P2-AA-1HGe-M; 2.15 with P2-AA-1HGe-T; 1.27 in the experiment with P2-AA-1HGe-D; 1.34 in the experiment with P2-AA-1HGe-R. In addition, in the experiment with P2-AA-1HGe-A, the interaction score worked out at 1.9.
